Results taken from US20250057128A1, “HUMANIZED MOUSE MODELS” (The Jackson Laboratory, priority 2021, published 2025).

Test system: NSG-SGM3×IL15 mice humanized with human PBMCs
Assay: Cytokine release syndrome (CRS) induction in PBMC-humanized mice, serum cytokine levels
Type: in vivo, mouse
Source text: FIGS. 9A-9C show comparisons of TNF (FIG. 9A), IL-6 (FIG. 9B), and IL-2 (FIG. 9C) levels in NSG-SGM3 mice and NSG-SGM3×IL15 mice engrafted with 5×10^6 human PBMCs per mouse.
FIGS. 10A-10C show comparisons of IFN-γ (FIG. 10A), TNF (FIG. 10B), and IL-6 (FIG. 10C) levels in NSG-SGM3 mice and NSG-SGM3×IL15 mice engrafted with 1×10^6 or 2×10^6 human PBMCs per mouse, with two different doses of irradiation (150 and 175 cGy).
NSG-SGM3×IL15 and NSG-SGM3 mice humanized with human PBMCs and then dosed with various drugs to induce cytokine release syndrome (CRS). Briefly, the mice were irradiated (100 cGy) and administered PBS, OKT3, Anti-CD28, or a CD19×CD3 BiTE.
The use of lower levels of PBMCs for humanization was also tested. Briefly, NSG-SGM3×IL15 and NSG-SGM3 mice were irradiated (150 cGy or 175 cGy) and administered human PBMCs intravenously (1×10^6/mouse or 2×10^6/mouse) on day 0. On day 12, mice were dosed with PBS or OKT3 and serum cytokine levels were analyzed.

Substance: OKT3: drug dosed to induce cytokine release syndrome; known to induce cytokine release
- serum cytokine levels (TNF, IL-6, IL-2) (NSG-SGM3×IL15 mice as compared to NSG-SGM3 mice, irradiated 100 cGy, 5×10^6 human PBMCs per mouse, FIGS. 9A-9C): higher cytokine levels
- serum cytokine levels (IFN-γ, TNF, IL-6) (irradiated 150 cGy or 175 cGy, 1×10^6 or 2×10^6 human PBMCs per mouse, dosed on day 12, drug vs PBS control, FIGS. 10A-10C): greater difference between the drug (OKT3) and control (PBS)
